Data taken from patent publication US20160326219A1, “OPTICALLY ACTIVATED RECEPTORS” (IST AUSTRIA (INSTITUTE OF SCIENCE AND TECHNOLOGY AUSTRIA), priority 2013, published 2016).
Read-outs that look alike come from different tables or passages of the source.

Assays:
[1] = test system: MAPK pathway; assay: Stimulation and detection of MAPK signaling, PathDetect Elk1 luciferase reporter (HEK293 cells); format: cell-based, human; settings: for MAPK pathway activation in response to red light: HEK293 cells, PCB incubation, ~0.05 μW/mm^2; for MAPK pathway activation in response to blue light: HEK293 cells expressing the fusion protein (LOV domain fused to RTK intracellular domain), ~3 μW/mm^2
Experimental: For light stimulation of cells, an incubator (PT2499, ExoTerra/HAGEN, Holm, Germany) was equipped with 300 light emitting diodes (JS-FS505ORGB-W30 with JS-CON-004 controller, Komerci, Ebern, Germany; λmax˜630 nm (red), λmax˜530 nm (green), λmax˜470 nm (blue), bandwidth ˜±5 nm). Light intensity was controlled with an analog dimmer and measured with a digital power meter (PM120VA, Thorlabs, Munich, Germany). Intensities at maximal output were 2.3 (red), 2.6 (green) and 3.3 (blue light) W/m^2. For stimulation over extended time periods (>8 h), an aluminium box was equipped with the same light-emitting diodes and controller and placed in an incubator with standard tissue culture conditions (see below).
HEK293 cells and CHO-K1 (American Type Culture Collection (ATCC), Manassas, Va.) cells were maintained in DMEM supplemented with 10% FBS, 100 U/ml penicilin and 0.1 mg/ml streptomycin in a humidified incubator with 5% CO2 atmosphere. After trypsination, 5×10^4 cells were seeded in each well of 96-well plates (three to four wells for each construct) coated with poly-L-ornithine (Sigma, Vienna, Austria). Either transparent plates or black clear bottom plates were used. Cells were transfected using Lipofectamine 2000 (Invitrogen/LifeTech).
Phycocyanobilin (PCB; Livchem Logistics GmbH, Frankfurt a.M., Germany) was dissolved in a dark room to a stock concentration of 10 mM in DMSO. Aliquots were stored in the dark at −20° C. Prior to experiments, cells were incubated with 50 μM PCB overnight in reduced serum starve medium at 37° C. PCB could also be applied to applied to living animals as it is non-toxic even in high doses (0.17% of diet or 10 mg/kg) (McCarty (2007).
Activation of the MAPK pathway was assayed with the PathDetect Elk1 trans-Reporting System (Agilent) consisting of an Elk1 phosphorylation-dependent trans-activator and a luciferase-based trans-reporter. Cells were transfected with 213.3 ng total DNA per well (receptor, trans-activator and trans-reporter at ratio of 1:3:60 or 1:30:600) using Lipofectamine 2000. Six h after transfection medium was replaced with CO2-independent reduced serum starve medium (Gibco/Life Technologies; supplemented with 0.5% FBS, 2 mM L-Glutamine, 100 U/ml penicilin and 0.1 mg/ml streptomycin) for 18 h at 37° C. Cells were transferred and were either kept under constant illumination for 8 h or were protected from light. Chemical stimulation of imFGFR1 followed the same procedure, except that 10 nM AP20187 ((Clackson 1998); ARIAD Pharmaceuticals, Cambridge, Mass.) were added before transfer to the stimulation incubator. After incubation, plates were washed once with PBS and luciferase was detected with standard, off-the-shelf reagents. These were either Luciferase 1000 Assay System (Promega, Mannheim, Germany) in combination with a microplate reader equipped with an injector (Tecan Infinite 200 Pro, Maennedorf, Switzerland), or ONE-Glo Assay System (Promega) in combination with a microplate reader not equipped with an injector (BioTek Synergy H1). These assay systems provide equivalent results.

[2] = molecular target: LOV domains; settings: cited from earlier work

Molecule: rtrkB-SyCP1-PHY: chimeric receptor of rat trkB catalytic domain and SyCP1-PHY, SEQ ID NO: 67
- MAPK pathway activation in response to red light [1]: activate the canonical MAPK pathway

Molecule: imFGFR1: chemically-inducible mFGFR1 lacking ligand-binding modules, with a single FKBP domain, SEQ ID NO: 56 [reference compound]
- MAPK pathway activation in response to blue light [1]: no effect

B1: Opto-hRET: fusion of human RET catalytic domain and VfAU1-LOV, SEQ ID NO: 60 (protein)
chain: MGSSKSKPKDPSQRLDVTGHCYHKFAHKPPISSAEMTFRRPAQAFPVSYSSSSARRPSLDSMENQVSVDAFKILEDPKWEFPRKNLVLGKTLGEGEFGKVVKATAFHLKGRAGYTTVAVKMLKENASPSELRDLLSEFNVLKQVNHPHVIKLYGACSQDGPLLLIVEYAKYGSLRGFLRESRKVGPGYLGSGGSRNSSSLDHPDERALTMGDLISFAWQISQGMQYLAEMKLVHRDLAARNILVAEGRKMKISDFGLSRDVYEEDSYVKRSQGRIPVKWMAIESLFDHIYTTQSDVWSFGVLLWEIVTLGGNPYPGIPPERLFNLLKTGHRMERPDNCSEEMYRLMLQCWKQEPDKRPVFADISKDLEKMMVKRRDYLDLAASTPSDSLIYDDGLSEEETPLVDCNNAPLPRALPSTWIENKLYGRISHAFTRFTGGPDYSLVKALQMAQQNFVITDASLPDNPIVYASRGFLTLTGYSLDQILGRNCRFLQGPETDPRAVDKIRNAITKGVDTSVCLLNYRQDGTTFWNLFFVAGLRDSKGNIVNYVGVQSKVSEDYAKLLVNEQNIEYKGVRTSNMLRRKPGGSGVDYPYDVPDYALD
modifications: hRET-VfAU1-LOV
- MAPK pathway activation in response to blue light [1]: robust activation

B2: NgPA1-LOV: LOV domain of N. gaditana hypothetical protein NGA_0015702, residue 87 to 228 of K8Z861, SEQ ID NO: 12 (protein, listed as Nannochloropsis gaditana)
chain: PDYTLVKALQTAQQNFVITDPTLPDNPIVYASGGFLSLTGYQMDQILGRNCRFLQGPDTDPAAVDKIRRAIEDGTDGSVCLLNYRADGSTFWNQFFIAALRGADGNIVNYVGVQCKVSEEYASEVLKKEATSSTVAEASSKR
- MAPK pathway activation in response to blue light [1]: blue light-induced activation of MAPK signaling with amplitudes similar to that of the original Opto-mFGFR1
- Blue light intensity at which activation is already achieved [1]: 0.25 mW/cm^2

B3: mFGFR1-SyCP1-PHY: chimeric receptor of mFGFR1 catalytic domain and SyCP1-PHY, SEQ ID NO: 66 (protein)
chain: MGSSKSKPKDPSQRLDMKSGTKKSDFHSQMAVHKLAKSIPLRRQVTVSADSSASMNSGVLLVRPSRLSSSGTPMLAGVSEYELPEDPRWELPRDRLVLGKPLGEGCFGQVVLAEAIGLDKDKPNRVTKVAVKMLKSDATEKDLSDLISEMEMMKMIGKHKNIINLLGACTQDGPLYVIVEYASKGNLREYLQARRPPGLEYCYNPSHNPEEQLSSKDLVSCAYQVARGMEYLASKKCIHRDLAARNVLVTEDNVMKIADFGLARDIHHIDYYKKTTNGRLPVKWMAPEALFDRIYTHQSDVWSFGVLLWEIFTLGGSPYPGVPVEELFKLLKEGHRMDKPSNCTNELYMMMRDCWHAVPSQRPTFKQLVEDLDRIVALTSNQEYLDLSIPLDQYSPSFPDTRSSTCSSGEDSVFSHEPLPEEPCLPRHPTQLANSGLKRRVETGATTVQLSDQSLRQLETLAIHTAHLIQPHGLVVVLQEPDLTISQISANCTGILGRSPEDLLGRTLGEVFDSFQIDPIQSRLTAGQISSLNPSKLWARVMGDDFVIFDGVFHRNSDGLLVCELEPAYTSDNLPFLGFYHMANAALNRLRQQANLRDFYDVIVEEVRRMTGFDRVMLYRFDENNHGDVIAEDKRDDMEPYLGLHYPESDIPQPARRLFIHNPIRVIPDVYGVAVPLTPAVNPSTNRAVDLTESILRSAYHCHLTYLKNMGVGASLTISLIKDGHLWGLIACHHQTPKVIPFELRKACEFFGRVVFSNISAQEDTETFDYRVQLAEHEAVLLDKMTTAADFVEGLTNHPDRLLGLTGSQGAAICFGEKLILVGETPDEKAVQYLLQWLENREVQDVFFTSSLSQIYPDAVNFKSVASGLLAIPIARHNFLLWFRPEVLQTVNWGGDPNHAYEATQEDGKIELHPRQSFDLWKEIVRLQSLPWQSVEIQSALALKKAIVNLILRQAEETGGSGVDYPYDVPDYALD
modifications: redOpto-mFGFR1
- MAPK pathway activation in response to red light [1]: activate the canonical MAPK pathway

B4: Opto-mFGFR1-R195E: Opto-mFGFR1 with charge inversion mutation R195E that prevents kinase domain dimer formation (protein)
chain: MGSSKSKPKDPSQRLDMKSGTKKSDFHSQMAVHKLAKSIPLRRQVTVSADSSASMNSGVLLVRPSRLSSSGTPMLAGVSEYELPEDPRWELPRDRLVLGKPLGEGCFGQVVLAEAIGLDKDKPNRVTKVAVKMLKSDATEKDLSDLISEMEMMKMIGKHKNIINLLGACTQDGPLYVIVEYASKGNLREYLQAREPPGLEYCYNPSHNPEEQLSSKDLVSCAYQVARGMEYLASKKCIHRDLAARNVLVTEDNVMKIADFGLARDIHHIDYYKKTTNGRLPVKWMAPEALFDRIYTHQSDVWSFGVLLWEIFTLGGSPYPGVPVEELFKLLKEGHRMDKPSNCTNELYMMMRDCWHAVPSQRPTFKQLVEDLDRIVALTSNQEYLDLSIPLDQYSPSFPDTRSSTCSSGEDSVFSHEPLPEEPCLPRHPTQLANSGLKRRVETGPDYSLVKALQMAQQNFVITDASLPDNPIVYASRGFLTLTGYSLDQILGRNCRFLQGPETDPRAVDKIRNAITKGVDTSVCLLNYRQDGTTFWNLFFVAGLRDSKGNIVNYVGVQSKVSEDYAKLLVNEQNIEYKGVRTSNMLRRKTGGSGVDYPYDVPDYALD
- MAPK pathway activation in response to blue light [1]: no MAPK pathway activation

B5: SyCP1-PHY: PHY domain of Synechocystis PCC6803 CPH1, residue 2 to 514 of Q55168, SEQ ID NO: 64 (protein)
chain: ATTVQLSDQSLRQLETLAIHTAHLIQPHGLVVVLQEPDLTISQISANCTGILGRSPEDLLGRTLGEVFDSFQIDPIQSRLTAGQISSLNPSKLWARVMGDDFVIFDGVFHRNSDGLLVCELEPAYTSDNLPFLGFYHMANAALNRLRQQANLRDFYDVIVEEVRRMTGFDRVMLYRFDENNHGDVIAEDKRDDMEPYLGLHYPESDIPQPARRLFIHNPIRVIPDVYGVAVPLTPAVNPSTNRAVDLTESILRSAYHCHLTYLKNMGVGASLTISLIKDGHLWGLIACHHQTPKVIPFELRKACEFFGRVVFSNISAQEDTETFDYRVQLAEHEAVLLDKMTTAADFVEGLTNHPDRLLGLTGSQGAAICFGEKLILVGETPDEKAVQYLLQWLENREVQDVFFTSSLSQIYPDAVNFKSVASGLLAIPIARHNFLLWFRPEVLQTVNWGGDPNHAYEATQEDGKIELHPRQSFDLWKEIVRLQSLPWQSVEIQSALALKKAIVNLILRQAEE
modifications: Synechocystis PCC6803
- Red light intensity at which activation is already achieved ([1]; red light): 5.8 μW/cm^2
- Red light intensity at which activation is already achieved, converted ([1]; red light, conversion of 5.8 μW/cm^2): 0.0058 mW/cm^2

B6: OdPA1-LOV: LOV domain of O. danica aureochrome1-like protein, residue 180 to 312 of C5NSW6, SEQ ID NO: 14 (protein, listed as Ochromonas danica)
chain: PDYSLVKALQTAQQNFVISDPSIPDNPIVYASQGFLTLTGYALSEVLGRNCRFLQGPETDPKAVEKVRKGLERGEDTTVVLLNYRKDGSTFWNQLFIAALRDGEGNVVNYLGVQCKVSEDYAKAFLKNEENEK
- MAPK pathway activation in response to blue light [1]: blue light-induced activation of MAPK signaling with amplitudes similar to that of the original Opto-mFGFR1
- Blue light intensity at which activation is already achieved [1]: 0.25 mW/cm^2

B7: NcVV-LOV: LOV domain of N. crassa vivid, residue 37 to 186 with Y50W mutation of Q9C3Y6, SEQ ID NO: 8 (protein, listed as Neurospora crassa)
chain: HTLYAPGGYDIMGWLIQIMNRPNPQVELGPVDTSCALILCDLKQKDTPIVYASEAFLYMTGYSNAEVLGRNCRFLQSPDGMVKPKSTRKYVDSNTINTMRKAIDRNAEVQVEVVNFKKNGQRFVNFLTMIPVRDETGEYRYSMGFQCETE
- Kd ([2]; dark state, read-out: Estimated KD, Dark): < 5000 nM
- Kd ([2]; light state, read-out: Estimated KD, Light): < 500 nM
